The results in this text go back to patent US20150299332A1 (UNIVERSITY OF TSUKUBA, published 2015).

This assay deals with T1, human CD300a-Fc (human, UniProt Q9UGN4 18-180).
T1 construct: extracellular domain; Made from a chimeric cDNA as in Document 25; not shown: human IgG1 Fc
T1 sequence (looked up): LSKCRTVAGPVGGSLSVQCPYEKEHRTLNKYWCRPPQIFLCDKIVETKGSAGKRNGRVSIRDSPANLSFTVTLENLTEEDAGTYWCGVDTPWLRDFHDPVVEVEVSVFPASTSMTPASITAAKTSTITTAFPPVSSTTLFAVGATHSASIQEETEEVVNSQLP
In words: flow cytometry binding inhibition: human CD300a-Fc on apoptotic Jurkat cells with TX49 (binding of TX49 to CD300a-Fc shown by blocking). How it is done: First, Jurkat cells (human T-cell line) were suspended in RPMI 1640 medium, and the resulting medium was irradiated with UV for 60 minutes to prepare apoptotic Jurkat cells.
Further, cytometry analysis was carried out under the same test conditions as in Reference Example 1B except that the “Jurkat cell-derived apoptotic cells” were used as apoptotic cells instead of the apoptotic cells derived from wild-type mouse thymocytes; “human CD300a-Fc” was used instead of the “mouse CD300a-Fc”; and “TX49” or “control human IgG1” was used instead of “TX41” (results: FIG. 2E “TX49” or “HuIgG1”). “TX49” is an anti-human CD300a antibody (monoclonal antibody), and blocks binding of CD300a to the ligand.
(In general: In flow cytometry, cells or beads pass a laser one at a time.)

B1: Human CD300a monoclonal antibody TX49 (mouse IgG1) (antibody, V domains shown)
VH: EVQLQQSGAELVKPGASVKLSCKASGYTFTSYWMQWVKQRPGQGLEWIGEIDPSDSYTNYNQKFKGKATLTVDTSSSTTYMQLSSLTSEDSAVYYCARWGMAYGTSSYWYFDVWGTGTTVTVSS
VL: DCDIQMTQTTSSLSASLGDRVTISCRASQDISNYLNWYQQKPDGTVKLLIYYTSRLHSGVPSRFSGSGSGTDYSLTISNLEQEDIATYFCQQGNTLPWTFGGGTKLEIKR
notes: also called anti-human CD300a monoclonal antibody; anti-human CD300a antibody
In the case of B1, the binding result is recorded as “binds”.
